“Also recorded” adds a separate entry of the source. Where a SMILES comes first, the peptide text is derived from it. [ ]: non-standard residue; d: D form. The star is where a group is joined. ξ: configuration not given here. HYNIC = NNc1ccc(C(=O)*)cn1; PEG3 = NCCOCCOCCOCCC(=O)O; ξK = NCCCCC(N)C(=O)O
Columns and labels:
plasma proteins = experiment: in vitro; conditions: human, fresh human plasma
Description: (§1) A Dionex Ultimate 3000 system coupled to a Berthold radiometric detector was used for RP-HPLC analysis. A ACE 3 C18, 3μ, 100 Å, 150×4.6 mm column, at a flow rate of 1 mL/min and with UV detection at 220 nm, was employed with the following mobile phases, A: 0.1% TFA/water), B Acetonitrile (ACN). Gradient was: 0-2 min 23% B, 2-20 min 23-50% B, 20-23 min 50-100% B, 23-25 min 100-23% B, 25-28 min 23% B. 2.2 Thin Layer Chromatography TLC was performed using a radiochromatogaph (MiniGita, Raytest, Germany). Stationary phase was silica gel (ITLC-SG, Agilent technologies, USA) and different mobile phases were employed. MEK was used to determine the amount of free ^99mTcO4^− (Rf=1), Anticoagulant Citrate Dextrose Solution (ACD-A, Baxter International, USA) to determine non-peptide-bound ^99mTc-coligands and ^99mTcO4^− (Rf=1), 60% ACN for ^99mTc-colloid (Rf=0). […] In Vitro Stability Study Stability of ^99mTc complexes was assessed in fresh human plasma at 37° C. after 0 min, 30 min, 1 hour, 2 hours and 4 hours of incubation at a concentration of 100 μmol/mL. […] Supernatants were collected and filtered (Millex-GV 0.22 μm PVDF, Merck Millipore, Germany) then assessed by radio-HPLC. […] After one hour, rat was sacrificed and urine was directly collected from the bladder using a syringe and analyzed by radio-HPLC after a 0.22 μm filtration (Millex-GV 0.22 μm PVDF, Merck Millipore, Germany). […]

[1] = 37° C.
Description: as §1

[2] = system: abdominal aorta aneurysm (AAA) rat model of vascular inflammation; experiment: SPECT/CT imaging in abdominal aorta aneurysm (AAA) model; format: in vivo; conditions: for Pattern of biodistribution / blood clearance route (in words): AAA rat, 74 MBq i.v., SPECT/CT
Description: Rat model of vascular inflammation that has been set up at the laboratory: the experimental abdominal aorta aneurysm (AAA) induced by local infusion of elastase and followed by intravenous injection of a periodontal bacterium present in human AAA (Porphyromonas gingivalis) and known to induce AAA inflammation (Delbosc et al., 2011, PLoS ONE 6(4): e18679. doi:10.1371/journal.pone.0018679).
Immediately after intravenous injection via the penis vein of 74 MBq of radiolabelled HYNIC-P8RI (obtained using Tricine/EDDA), sequential whole-body acquisitions (every 10 minutes for the first hour) were performed with a hybrid SPECT/CT camera (NanoSPECT/CT, Bioscan Inc.) dedicated to small animals. 10. […] Results 1. Radiolabeling 6-Hydrazinopyridine-3-carboxylic acid (HYNIC) was coupled to the N-terminal amino-acid of the P8RI peptide via a 3(PEG) spacer to obtain HYNIC-P8RI. HYNIC-P8RI was then labeled at high specific activities (>71 GBq/μmol) using tricine, EDDA or Tricine/EDDA as coligands. The tricine/EDDA exchange labeling strategy was chosen because of high labeling yield and resulting in a single major specie as analyzed by HPLC (see FIG. 1).

[3] = male wistar rat, 74 MBq, urine from bladder 1 hour after injection; listed as [99mTc]EDDA/HYNIC-P8RI
Description: as §1

CC(C)C[C@@H](NC(=O)[C@@H](C)NC(=O)[C@H]1CCCN1C(=O)[C@@H](Cc1c[nH]c2ccccc12)NC(=O)C(CCCCN)NC(=O)CCOCCOCCOCCNC(=O)c1ccc(NN)nc1)C(=O)N[C@H](Cc1ccccc1)C(=O)N[C@@H](C(=O)N[C@H](CCCNC(=N)N)C(=O)O)C(C)C (stereo partly drawn) [99mTc-HYNIC-P8RI, metal not drawn] ({HYNIC-PEG3}-[ξK][dW][dP][dA][dL][dF][dV][dR]-OH)
fraction unbound at 4 h (plasma proteins): > 0.95 | RCP (radiochemical purity) after incubation in human plasma ([1]; 4 h of incubation, tricine/EDDA coligands): > 89% | In vitro stability in human plasma (in words) ([1]; up to 4 h, radio-HPLC, listed as [99mTc]EDDA/HYNIC-P8RI): no significant release of degraded radiolabelled peptide | Pattern of biodistribution / blood clearance route (in words) [2]: almost exclusive renal uptake and excretion | Pattern of biodistribution / blood clearance route (in words) ([2]; listed as [99mTc]EDDA/HYNIC-P8RI): tracer elimination via kidneys; also recorded: almost exclusively renal | Blood clearance rate (in words) ([2]; in vivo, rat): rapid blood clearance | Time of peak activity in kidneys and bladder after injection ([2]; rat, i.v. injection): 1 h | In vivo stability: species excreted in rat urine by radio-HPLC (in words) [3]: unaltered form of the peptide

Source: patent US11098124B2, “CD31 shed as a molecular target for imaging of inflammation” (INSTITUT NATIONAL DE LA SANTE ET DE LA RECHERCHE MEDICALE …, priority 2016, dated 2021)
